PMC3900457

B1: wild-type ecdysone receptor DNA binding domain (EcRDBDWT) [Drosophila melanogaster] / itself (parent)
chain: APRVQEELCLVCGDRASGYHYNALTCEGCKGFFRRSVTKSAVYCCKFGRACEMDMYMRRKCQECRLKKCLAVGMRPECVVPENQCAMKRREKKAQKEKDKMTTSPSSQHG
B2: wild-type ecdysone receptor DNA binding domain (EcRDBDWT) [Drosophila melanogaster] / ultraspiracle DNA binding domain (UspDBD) [Drosophila melanogaster] (parent)
chain 1: B1 chain
chain 2: NHPLSGSKHLCSICGDRASGKHYGVYSCEGCKGFFKRTVRKDLTYACRENRNCIIDKRQRNRCQYCRYQKCLTCGMKREAVQEERQ

Variants of: B1
Experiment: EMSA
Settings: with itself; total protein 200 nM; homodimer complex (CIIE) on hsp27pal DNA probe; parent: 44; read off a plot

In order of rising response (% hsp27pal bound):
1. APRVQEELCLVCGDRASGYHYNALTCEGCKGFFRRSVTKSAVYCCKFGRACEMDMYMRRKCQECRLKKCLAEGMRPECVVPENQCAMKRREKKAQKEKDKMTTSPSSQHG [chain 1 V72E]  7.4
2. APRVQEELCLVCGDRASGYHYNALTCEGCKGFFRRSVTKSAVYCCKFGRACEMDMYMRRKCQECRLKKCLAMGMRPECVVPENQCAMKRREKKAQKEKDKMTTSPSSQHG [chain 1 V72M]  23
3. APRVQEELCLVCGDRASGYHYNALTCEGCKGFFRRSVTKSAVYCCKFGRACEMDMYMRRKCQECRLKKALAVGMRPECVVPENQCAMKRREKKAQKEKDKMTTSPSSQHG [chain 1 C69A]  39
4. APRVQEELCLVCGDRASGYHYNALTCEGCKGFFRRSVTKSAVYCCKFGRACEMDMYWRRKCQECRLKKCLAVGMRPECVVPENQCAMKRREKKAQKEKDKMTTSPSSQHG [chain 1 M57W]  42
5. APRVQEELCLVCGDRASGYHYNARTCEGCKGFFRRSVTKSAVYCCKFGRACEMDMYMRRKCQECRLKKCLAVGMRPECVVPENQCAMKRREKKAQKEKDKMTTSPSSQHG [chain 1 L24R]  45
6. APRVQEELCLVCGDRASGYHYNALTCEGCKGFFRRSVTKSAVYCCKFGRACEMDMYMRRKCQECRFKKCLAVGMRPECVVPENQCAMKRREKKAQKEKDKMTTSPSSQHG [chain 1 L66F]  47

Same assay, conditions: with itself; total protein 50 nM; homodimer complex (CIIE) on hsp27pal DNA probe; parent: 19; read off a plot

In order of rising response (% hsp27pal bound):
1. APRVQEELCLVCGDRASGYHYNARTCEGCKGFFRRSVTKSAVYCCKFGRACEMDMYMRRKCQECRFKKCLAVGMRPECVVPENQCAMKRREKKAQKEKDKMTTSPSSQHG [chain 1 L24R L66F]  20
2. APRVQEELCLVCGDRASGYHYNARTCEGCKGFFRRSVTKSAVYCCKFGRACEMDMYWRRKCQECRLKKCLAVGMRPECVVPENQCAMKRREKKAQKEKDKMTTSPSSQHG [chain 1 L24R M57W]  22
3. APRVQEELCLVCGDRASGYHYNALTCEGCKGFFRRSVTKSAVYCCKFGRACEMDMYWRRKCQECRFKKCLAVGMRPECVVPENQCAMKRREKKAQKEKDKMTTSPSSQHG [chain 1 M57W L66F]  31
4. APRVQEELCLVCGDRASGYHYNARTCEGCKGFFRRSVTKSAVYCCKFGRACEMDMYWRRKCQECRFKKCLAVGMRPECVVPENQCAMKRREKKAQKEKDKMTTSPSSQHG [chain 1 L24R M57W L66F]  36

Variants of: B2
Experiment: EMSA
Settings: with ultraspiracle DNA binding domain (UspDBD) [Drosophila melanogaster]; equimolar mixture of EcRDBD and UspDBD, total protein 200 nM; heterodimer complex (CIIUE) on hsp27pal DNA probe; parent: 62; read off a plot

In order of rising response (% hsp27pal bound):
1. chain 1 APRVQEELCLVCGDRASGYHYNALTCEGCKGFFRRSVTKSAVYCCKFGRACEMDMYMRRKCQECRLKKCLAEGMRPECVVPENQCAMKRREKKAQKEKDKMTTSPSSQHG [chain 1 V72E]  42
2. chain 1 APRVQEELCLVCGDRASGYHYNALTCEGCKGFFRRSVTKSAVYCCKFGRACEMDMYMRRKCQECRLKKALAVGMRPECVVPENQCAMKRREKKAQKEKDKMTTSPSSQHG [chain 1 C69A]  55
3. chain 1 APRVQEELCLVCGDRASGYHYNALTCEGCKGFFRRSVTKSAVYCCKFGRACEMDMYMRRKCQECRLKKCLAMGMRPECVVPENQCAMKRREKKAQKEKDKMTTSPSSQHG [chain 1 V72M]  57
4. chain 1 APRVQEELCLVCGDRASGYHYNARTCEGCKGFFRRSVTKSAVYCCKFGRACEMDMYMRRKCQECRLKKCLAVGMRPECVVPENQCAMKRREKKAQKEKDKMTTSPSSQHG [chain 1 L24R]  58
5. chain 1 APRVQEELCLVCGDRASGYHYNALTCEGCKGFFRRSVTKSAVYCCKFGRACEMDMYWRRKCQECRLKKCLAVGMRPECVVPENQCAMKRREKKAQKEKDKMTTSPSSQHG [chain 1 M57W]  61
6. chain 1 APRVQEELCLVCGDRASGYHYNALTCEGCKGFFRRSVTKSAVYCCKFGRACEMDMYMRRKCQECRFKKCLAVGMRPECVVPENQCAMKRREKKAQKEKDKMTTSPSSQHG [chain 1 L66F]  64

Same assay, conditions: with ultraspiracle DNA binding domain (UspDBD) [Drosophila melanogaster]; equimolar mixture of EcRDBD and UspDBD, total protein 50 nM; heterodimer complex (CIIUE) on hsp27pal DNA probe; parent: 42; read off a plot

In order of rising response (% hsp27pal bound):
1. chain 1 APRVQEELCLVCGDRASGYHYNARTCEGCKGFFRRSVTKSAVYCCKFGRACEMDMYMRRKCQECRFKKCLAVGMRPECVVPENQCAMKRREKKAQKEKDKMTTSPSSQHG [chain 1 L24R L66F]  39
2. chain 1 APRVQEELCLVCGDRASGYHYNARTCEGCKGFFRRSVTKSAVYCCKFGRACEMDMYWRRKCQECRLKKCLAVGMRPECVVPENQCAMKRREKKAQKEKDKMTTSPSSQHG [chain 1 L24R M57W]  45
3. chain 1 APRVQEELCLVCGDRASGYHYNALTCEGCKGFFRRSVTKSAVYCCKFGRACEMDMYWRRKCQECRFKKCLAVGMRPECVVPENQCAMKRREKKAQKEKDKMTTSPSSQHG [chain 1 M57W L66F]  51
4. chain 1 APRVQEELCLVCGDRASGYHYNARTCEGCKGFFRRSVTKSAVYCCKFGRACEMDMYWRRKCQECRFKKCLAVGMRPECVVPENQCAMKRREKKAQKEKDKMTTSPSSQHG [chain 1 L24R M57W L66F]  57
